These results are taken from patent US10323078B2, “Isolated peptides and fragments thereof from fibrinogen for use as drugs, particularly in skin inflammatory diseases” (Universite Paris Descartes, priority 2015, dated 2019).

In one assay the test system is P. acnes 6919 strain. Description: Adhesion assay, biotinylated P. acnes binding to HaCaT keratinocytes. It is filed as cell-based, Propionibacterium acnes. The settings on record: P. acnes 6919 pre-treated with whole fibrinogen 0.01 to 0.5 mM, 1 h at 37° C. How it is done: FIG. 12: Dose-dependent inhibition of P. acnes binding to keratinocytes. Biotinylated P. acnes 6919 strain at concentrations adjusted to 0.1 of absorbance at 600 nm was pre-treated with whole human (dark gray bar) and bovine (light gray bar) fibrinogen at the concentrations ranging from 0.01 to 0.5 mM and incubated 1 h at 37° C. with the human HaCaT keratinocyte cell line. After removal of unbound bacteria, adhesion activity was detected at 410 nm. Data are means±S.D. of three separate experiments. Statistical significance is indicated by * (P<0.05), ** (P<0.01), *** (P<0.001), and **** (P<0.0001), respectively.
The bacterial suspension was adjusted at 600 nm to the desired concentration, pretreated with peptides Fg1 and Fg2 at the final concentration ranging from 0.87 to 7 μM for 1 h at 37° C. and deposited on the previously saturated cells with a solution of PBS SVF 2% for 2 h. After incubation for 1 h at 37° C., unbound bacteria are removed by 3 washes with PBS and fixed bacteria are detected by a streptavidin-peroxidase solution of 0.5 μg/ml for 30 min.
Whole P. acnes bacteria are labelled by biotinylation, pre-treated or not with the peptides and contacted with the various cell lines. After removal of the unfixed bacteria, the adhesion activity was measured spectrophotometrically by using the streptavidin-peroxidase conjugate and a chromogenic substrate. […]

A further assay relates to HaCaT cells. The assay can be described thus: H2O2 production by P. acnes-stimulated HaCaT (spectrofluorimetry, H2-DCFDA). Format: cell-based, human. The settings on record: bacteria first pretreated, 0.87 to 7 μM. As to the method:
(§1) For experiences of stimulation with P. acnes, cells were incubated with the P. acnes suspension adjusted at the appropriate concentration, pre-treated for 1 h at 37° C. or not with fibrinogen recombinant peptides Fg1 and Fg2 at the concentrations 0.87, 1.75, 3.5 or 7 μM for the desired period of time at 37° C. in 5% CO2.
(§2) All cells lines (5·10^4 to 10^5 cells/well) were seeded in 96-well plates (Corning Costar, Brumath, France) and treated as previously described. After stimulation, cells were washed three times in PBS and incubated with 100 μl per wells of 5 μM DHE (for determination of O2^●−) or 5 μM H2-DCFDA (for determination of H2O2) for 30 min as described previously and fluorescence intensity was recorded every hour over a period of 5 h. Fluorescence excitation/emission maxima were for DHE: 480/610 nm and for H2-DCFDA: 507/525 nm. At the end of the experiment, the number of adherent cells was evaluated by the crystal violet assay as described below. O2^●−, and H2O2 were assayed by spectrofluorimetry on a Fusion spectrofluorimeter (PackardBell, Paris, France). Levels of ROS were calculated in each sample as follows: reactive oxygen species rate (arbitrary units/min/10^6 cells)=(fluorescence intensity [arbitrary units] at T5h—fluorescence intensity [arbitrary units] at To/300 minutes/number of adherent cells as measured by the crystal violet assay, and were expressed as arbitrary unit (A.U.).
(§3) To assess the efficacy of Fg1 recombinant peptide, the production of O2^∘− and H2O2 by HaCaT cells NHDK, THP-1, MRC5 and HDF stimulated by pretreated P. acnes strains 6919, RON and PIE was measured. The amount of ROS produced was compared to that produced by the stimulated cells with untreated bacteria. Production baseline was obtained by measuring ROS on unstimulated cells. The production of IL-1ß, IL-8, IL-12 and TNF-α was also measured in all conditions cited above. The measurement of the production of ROS is performed by spectrofluorimetry in the presence of specific fluorochromes directly on the monolayer cell. Measurement of cytokine production was performed in parallel on the cell culture supernatant.
(§4) Two sets of experiments were implemented: 1) The cells were stimulated (18 h at 37° C.) by P. acnes strains previously pretreated with Fg1 and Fg2 peptides at the final concentrations ranging from 0.87 to 7 μM for 1 h at 37° C.; and 2) The cells were pretreated first with Fg1 and Fg2 peptides at the final concentrations ranging from 0.87 to 7 μM for 24 h at 37° C. and stimulated (18 h at 37° C.) by P. acnes strains.
(§5) To assess the efficacy of the small Fg1-related peptide, the production of H2O2 by several cell lines (HaCaT, NHDK, THP-1, MRC5 and HDF) stimulated by three P. acnes strains 6919, RON and PIE was measured, in presence or not with the small peptides. The amount of H2O2 produced is compared to that produced by the stimulated cells with untreated bacteria. Production baseline is obtained by measuring H2O2 on unstimulated cells. The measurement of the production of H2O2 is performed by spectrofluorimetry in the presence of specific fluorochromes directly on the monolayer cell.
(§6) Two sets of experiments have been implemented: • I) The cells are stimulated (18 h at 37° C.) by P. acnes strains previously pretreated with Fg1.1, Fg1.2, Fg1.3, Fg1.4, and Fg1.5 small peptides at the final concentrations ranging from 2.5 to 20 μM for 1 h at 37° C.; • II) The cells are pretreated first with the five small peptides at the final concentrations ranging from 2.5 to 20 μM for 24 h at 37° C. and stimulated (18 h at 37° C.) by P. acnes strains.

For the next assay, the system named is HDF cells. The assay can be described thus: H2O2 production by P. acnes-stimulated HDF. It is filed as cell-based, human. The note with it: 0.87 to 7 μM. How it is done: as §1, §2, §3, §4, §5, §6

Take “human fibrinogen: purified commercial human fibrinogen (Sigma), glycoprotein hexamer of Aα, Bß and γ chains”: the “Inhibition of adhesion of P. acnes to keratinocytes” value with P. acnes 6919 strain is listed as “able to inhibit the adhesion”.

B1: MKRMVSWSFHKLKTMKHLLLLLLCVFLVKSQGVNDNEEGFFSARGHRPLDKKREEAPSLRPAPPPISGGGYRARPAKAAATQKKVERKAPDAGGCLHADPDLGVLC (protein)
chain: MKRMVSWSFHKLKTMKHLLLLLLCVFLVKSQGVNDNEEGFFSARGHRPLDKKREEAPSLRPAPPPISGGGRARPAKAAATQKKVERKAPDAGGCLHADPDLGVLCMKRMVSWSFHKLKTMKHLLLLLLCVFLVKSQGVNDNEEGFFSARGHRPLDKKREEAPSLRPAPPPISGGGYRARPAKAAATQKKVERKAPDAGGCLHADPDLGVLC
modifications: GST fusion; fragment Fg1
notes: fragment of Bß chain of human fibrinogen having 106 amino acids; recombinant GST-fused peptide expressed in E. coli
On to B1, for which the “Inhibition of Hydrogen peroxide (H2O2) production” value with HaCaT cells (P. acnes 6919, set I) is listed as “pos”; in the assay on HaCaT cells (P. acnes PIE, set I), “pos”; in the assay with HaCaT cells (P. acnes RON, set I), “pos”; in the assay on HDF cells (P. acnes 6919, set I, bacteria first pretreated), “pos”; in the assay with HDF cells (P. acnes 6919, set II, cells first pretreated), “pos”; in the assay on HDF cells (P. acnes PIE, set I, bacteria first pretreated) it was “pos”. Besides, the “Inhibition of Hydrogen peroxide (H2O2) production” value is “pos” with HDF cells (P. acnes PIE, set II, cells first pretreated); “pos” in the assay with HDF cells (P. acnes RON, set I, bacteria first pretreated); “pos” with HDF cells (P. acnes RON, set II, cells first pretreated).
